Data: PMC6928210 (Scientific Reports, 2019)
Values joined by “and” are separate entries in the source; they are usually repeats but may differ in a detail not shown here. Identical values can stand only once. Like-named read-outs stand apart in the source and are kept apart here. Blank lines part the entries; values can stand above or below the molecule they belong to.

Columns and labels:
AtSHMT2 [1] = molecular target: T1, AtSHMT2 (Arabidopsis thaliana, UniProt Q94C74); assay: Competitive binding assay vs 5-formyl-THF, quinonoid intermediate absorbance; conditions: AtSHMT2, 20 mM KPi pH 8.0, 30 °C, glycine 10 mM, 5-formyl-THF varied; read-out: Ki (inhibition constant, antifolate binding to the enzyme-glycine complex)
T1 construct: the protein N-truncated at E41; The open reading frames coding for AtSHMT2 41–517 fragment; His6 (N, cleaved yes); made in house; host or cells: E. coli BL21 Gold
T1 sequence (Q94C74 41-517): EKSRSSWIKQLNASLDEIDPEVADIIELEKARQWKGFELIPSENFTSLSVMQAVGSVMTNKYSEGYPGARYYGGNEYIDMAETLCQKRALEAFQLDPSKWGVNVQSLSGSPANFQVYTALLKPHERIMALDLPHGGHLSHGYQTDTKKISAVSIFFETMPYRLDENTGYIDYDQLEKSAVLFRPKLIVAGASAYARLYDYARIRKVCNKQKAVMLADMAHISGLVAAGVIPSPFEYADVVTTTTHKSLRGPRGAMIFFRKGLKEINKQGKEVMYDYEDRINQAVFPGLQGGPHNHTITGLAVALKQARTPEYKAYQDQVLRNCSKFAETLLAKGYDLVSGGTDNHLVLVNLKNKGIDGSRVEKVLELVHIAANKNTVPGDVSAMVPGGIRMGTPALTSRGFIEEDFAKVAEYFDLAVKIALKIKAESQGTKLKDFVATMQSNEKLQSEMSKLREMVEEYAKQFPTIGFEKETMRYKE
Text: (§1) In this system, the obtained Ki values refer to binding of the antifolates to the enzyme-glycine complex.
(§2) Secondary plots of slopes as functions of antifolate concentrations were obtained from fitting of inhibition data (Fig. S2). Intercept on the X-axis gives an estimate of the inhibition constant (Ki) related to antifolate binding to the enzyme-glycine complex. Since it is known that the mitochondrial matrix has an alkaline pH (pH 8[68]) as compared to the cytosol (pH 7.3[68]), inhibition measurements were performed in 20 mM KPi buffer at pH 8.0 for AtSHMT2 and pH 7.3 for AtSHMT4 at 30 °C. […] Units of slopes are μM.
(§3) Inhibition assays were performed using 5 μM enzyme solutions. All assays were carried out at 30 °C in 20 mM KPi buffer at either pH 8.0, in the case of AtSHMT2, or pH 7.3 in the case of AtSHMT4. Methotrexate was dissolved in pure DMSO.
(§4) The intermediate develops when both ligands bind to SHMT, forming an enzyme-glycine-folate ternary complex. […] Data were analyzed to obtain estimates of the dissociation constant (Kd) and αKd (in the presence of a saturating concentration of the other ligand) for both ligands, as reported in[31].
(§5) The obtained data were used to produce double reciprocal plots and fitted to linear equations. […] Fitting of data was performed with the software PRISM (GraphPad, La Jolla, CA, USA). All experiments were performed in triplicate using a Hewlett-Packard 8453 diode-array spectrophotometer (Agilent Technologies, Santa Clara, CA).
(§6) Absorbance at 505 nm (AtSHMT2) or 500 nm (AtSHMT4) from the quinonoid intermediate formed
(§7) measured at equilibrium. Right-side charts show double reciprocal plots of data shown in left-side panels ﬁtted to a […]

AtSHMT4 [2] = molecular target: T2, AtSHMT4 (Arabidopsis thaliana, UniProt O23254); assay: as above; conditions: AtSHMT4, 20 mM KPi pH 7.3, 30 °C, glycine 10 mM, 5-formyl-THF varied; read-out: Ki (inhibition constant, antifolate binding to the enzyme-glycine complex)
T2 construct: The open reading frames coding for AtSHMT2 41–517 fragment and full-length AtSHMT4 were amplified; His6 (N, cleaved yes); made in house; host or cells: E. coli BL21 Gold
T2 sequence (O23254 1-471): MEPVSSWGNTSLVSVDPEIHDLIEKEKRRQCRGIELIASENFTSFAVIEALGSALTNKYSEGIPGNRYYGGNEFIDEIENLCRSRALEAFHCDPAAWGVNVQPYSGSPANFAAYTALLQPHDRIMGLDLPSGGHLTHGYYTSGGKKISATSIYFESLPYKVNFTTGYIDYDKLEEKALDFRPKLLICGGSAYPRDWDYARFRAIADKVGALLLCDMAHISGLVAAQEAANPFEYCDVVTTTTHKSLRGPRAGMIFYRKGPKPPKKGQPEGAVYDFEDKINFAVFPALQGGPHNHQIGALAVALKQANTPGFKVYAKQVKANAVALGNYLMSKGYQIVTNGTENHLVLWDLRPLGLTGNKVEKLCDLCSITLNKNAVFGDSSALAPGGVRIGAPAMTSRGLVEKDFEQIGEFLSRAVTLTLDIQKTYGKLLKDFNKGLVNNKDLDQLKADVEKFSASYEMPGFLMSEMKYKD
Text: as §1, §2, §3, §4, §5, §6, §7

hcSHMT = conditions: cited from earlier work
[3] = design: method as in PMID 9067281; conditions: PTX (or its polyglutamylated forms); cited from earlier work
AtSHMT2 [4] = molecular target: T1, AtSHMT2; assay: SHMT forward reaction (serine + THF), coupled assay, initial velocity; assay type: biochemical; conditions: read-out: KM THF; AtSHMT2, pH 6.5, 30 mM L-serine fixed, 30 °C
Description: (§8) Figure 2 Dependence of AtSHMT2 and AtSHMT4 activity on pH. The initial velocity of the SHMT forward reaction was measured at different pH values with AtSHMT2 and AtSHMT4 (0.2 μM) using a fixed concentration of one substrate while varying the concentration of the other substrate. The fixed L-serine concentration was saturating. […] All experimental points are the average ± standard deviation of three independent measurements. […] Reactions were carried out at 30 °C.
(§9) Activities were measured at different pH values (6.0, 7.0, 8.5 and 9.5). For pH 6.0, 7.0 and 8.5, the assays were performed in 20 mM phosphate buffer. Measurements at pH 9.5 were performed in a mixture of 50 mM MES, 50 mM HEPES, and 50 mM CHES and the final pH was adjusted with KOH.

AtSHMT4 [5] = molecular target: T2, AtSHMT4; assay: as above; assay type: biochemical; conditions: read-out: KM THF, 30 °C
Description: as §8, §9

AtSHMT3 = tested on: AtSHMT3; design: method as in PMID 20518745; conditions: read-out: KM for THF; cited from earlier work
[6] = substrate: N[C@@H](CO)C(=O)O; assay: purified protein, by the assay type; assay type: biochemical, Arabidopsis thaliana; conditions: 30 °C
[7] = other: AtSHMT2, pH 6.5, 180 µM THF fixed, pH 6.5
[8] = other: AtSHMT2, pH 7, 180 µM THF fixed, pH 7.0
[9] = other: AtSHMT2, pH 8, 180 µM THF fixed, pH 8.0
[10] = other: AtSHMT2, pH 8.5, 180 µM THF fixed, pH 8.5
[11] = other: AtSHMT2, pH 9.5, 180 µM THF fixed, pH 9.5
[12] = other: AtSHMT4, pH 6.5, 30 µM THF fixed, pH 6.5
[13] = other: AtSHMT4, pH 7, 30 µM THF fixed, pH 7.0
[14] = other: AtSHMT4, pH 8, 50 µM THF fixed, pH 8.0
[15] = other: AtSHMT4, pH 8.5, 80 µM THF fixed, pH 8.5
[16] = other: AtSHMT4, pH 9.5, 100 µM THF fixed, pH 9.5

Ki (AtSHMT2 [1]): 270 µM
Ki (AtSHMT4 [2]): 179 µM
Molecule: CN(Cc1cnc2nc(N)nc(N)c2n1)c1ccc(C(=O)N[C@@H](CCC(=O)O)C(=O)O)cc1 [MTX, methotrexate]
Ki (hcSHMT; ref Paiardini et al.[45], read-out: KiMTX (apparent inhibition constant)): 201 µM

Ki (AtSHMT2 [1]): 119 µM
Ki (AtSHMT4 [2]): 95 µM and 95.1 µM
Molecule: Nc1nc2[nH]cc(CCc3ccc(C(=O)N[C@@H](CCC(=O)O)C(=O)O)cc3)c2c(=O)[nH]1 [PTX, pemetrexed]
Intracellular concentration [3]: 10 to 30 µM
Ki (hcSHMT; ref Daidone et al.[26], read-out: KiPTX (inhibition constant)): 19.1 µM

Molecule: tetrahydrofolate [THF]
Km (AtSHMT2 [4]): 83.6 ± 8.1 µM
Km (AtSHMT4 [5]; AtSHMT4, pH 6.5, 30 mM L-serine fixed): 7.87 ± 1.62 µM
Km (AtSHMT4 [5]; AtSHMT4, pH 7, 30 mM L-serine fixed): 15 ± 1.87 µM
Km (AtSHMT4 [5]; AtSHMT4, pH 8, 30 mM L-serine fixed): 23.8 ± 3.99 µM
Km (AtSHMT4 [5]; AtSHMT4, pH 8.5, 30 mM L-serine fixed): 33.8 ± 5.63 µM
Km (AtSHMT3): 218 µM

B1: AtSHMT2 (Arabidopsis thaliana) (protein)
chain: T1 sequence (Q94C74 41-517)
notes: the protein N-truncated at E41; The open reading frames coding for AtSHMT2 41–517 fragment; His6 (N, cleaved yes); made in house; host or cells: E. coli BL21 Gold
Km [6, 7]: 11650 ± 2030 µM
kcat/Km [6, 7]: 450 M⁻¹ s⁻¹
Km [6, 8]: 8050 ± 1360 µM
kcat/Km [6, 8]: 1010 M⁻¹ s⁻¹
Km [6, 9]: 2860 ± 300 µM
kcat/Km [6, 9]: 4530 M⁻¹ s⁻¹
Km [6, 10]: 1780 ± 220 µM
kcat/Km [6, 10]: 11600 M⁻¹ s⁻¹
Km [6, 11]: 710 ± 90 µM
kcat/Km [6, 11]: 30700 M⁻¹ s⁻¹

B2: AtSHMT4 (Arabidopsis thaliana) (protein)
chain: T2 sequence (O23254 1-471)
notes: The open reading frames coding for AtSHMT2 41–517 fragment and full-length AtSHMT4 were amplified; His6 (N, cleaved yes); made in house; host or cells: E. coli BL21 Gold
Km [6, 12]: 2560 ± 260 µM
kcat/Km [6, 12]: 4630 M⁻¹ s⁻¹
Km [6, 13]: 540 ± 50 µM
kcat/Km [6, 13]: 30000 M⁻¹ s⁻¹
Km [6, 14]: 300 ± 20 µM
kcat/Km [6, 14]: 57900 M⁻¹ s⁻¹
Km [6, 15]: 240 ± 20 µM
kcat/Km [6, 15]: 81500 M⁻¹ s⁻¹
Km [6, 16]: 200 ± 20 µM
kcat/Km [6, 16]: 90800 M⁻¹ s⁻¹
